Tests used:
[1] = target: T1, N2 neuraminidase from A/Leningrad/134/17/57 (Influenza A virus A/Leningrad/134/17/57, UniProt Q67214 1-469); assay: flow cytometry, NA transiently expressed on Expi-CHO cells
[2] = target: IBV neuraminidase from B/Lee/10/1940 (Ancestral) (Influenza B virus B/Lee/10/1940, UniProt P03474 1-466); assay: as above
[3] = target: T1, N2 neuraminidase from …; assay: flow cytometry, NA on cells
N1 [4] = assay: ELISA on N1 NA
N1 [5] = assay: Bio-Layer Interferometry (BLI)
N1 [6] = assay: Bio-Layer Interferometry (BLI); printed as kdis
[7] = target: N8 A/HARBOR SEAL/NEW …/179629/2011 (Influenza A virus); assay: flow cytometry, NA transiently expressed on Expi-CHO cells
[8] = target: N9 neuraminidase from A/Anhui/1/2013 (Influenza A virus A/Anhui/1/2013 (H7N9)); assay: as above
[9] = target: N6 neuraminidase from A/swine/Ontario/01911/1/99 (Influenza A virus …); assay: as above
[10] = target: T2, N2 neuraminidase from A/Washington/01/2007 (Influenza A virus A/Washington/01/2007); assay: as above
T2 construct: whole, on cells

Binder | binding result [3] | further results
FNI9 (antibody, V domains shown) VH: QVHLVQSGAEVKEPGSSVTVSCKASGGSFNNQAISWVRQAPGQGLEWMGGIFPISGTPTSAQRFQGRVTFTADESTTTVYMDLSSLRSDDTAVYYCARAGSDYFNRDLGWENYYFASWGQGTLVTVSS VL: EIVMTQSPATLSLSSGERATLSCRASRSVSSNLAWYQQKPGQAPRLLIYDASTRATGFSARFAGSGSGTEFTLTISSLQSEDSAIYYCQQYNNWPPWTFGQGTKVEIK |  | lowest concentration at which binding was observed (EC50 scale class) [1]: 0.4 µg/mL; lowest concentration at which binding was observed (EC50 scale class) [2]: 0.4 µg/mL
v5.7 (antibody, V domains shown) VH: QVHLVQSGAEVKEPGSSVTVSCKASGGSFNKQAISWVRQAPGQGLEWMGGIFPISGTPTSAQRFQGRVTFTADESTTTVYMDLSSLRSDDTAVYYCARAGSDYFNRDLGWENYYFASWGQGTLVTVSS VL: EIVMTQSPATLSLSSGERATLSCRASRSVSSNLAWYQQKPGQAPRLLIYDASTRATGFSARFAGSGSGTEFTLTISSLQSEDSAIYYCQQYNIWPPWTFGQGTKVEIK | binds | 
v4.1 (antibody, V domains shown) VH: QVHLVQSGAEVKEPGSSVTVSCKASGGSFSNQAISWVRQAPGQGLEWMGGIFPISGTPTSAQRFQGRVTFTADESTTTVYMDLSSLRSDDTAVYYCARAGSDYFNRDLGWENYYFASWGQGTLVTVSS VL: EIVMTQSPATLSLSSGERATLSCRASRSVSSNLAWYQQKPGQAPRLLIYDASTRATGFSARFAGSGSGTEFTLTISSLQSEDSAIYYCQQYNNWPPWTFGQGTKVEIK | binds | 
v6.1 (antibody, V domains shown) VH: QVHLVQSGAEVKEPGSSVTVSCKASGGSFNNQAISWVRQAPGQGLEWMGGIFPISGTPTSAQRFQGRVTFTADESTTTVYMDLSSLRSDDTAVYYCARAGSEYFNRDLGWENYYFASWGQGTLVTVSS VL: EIVMTQSPATLSLSSGERATLSCRASRSVSSNLAWYQQKPGQAPRLLIYDASTRATGFSARFAGSGSGTEFTLTISSLQSEDSAIYYCQQYNNWPPWTFGQGTKVEIK | binds | 
v9.1 (antibody, V domains shown) VH: QVHLVQSGAEVKEPGSSVTVSCKASGGSFNNQAISWVRQAPGQGLEWMGGIFPISGTATSAQRFQGRVTITADESTTTVYMDLSSLRSDDTAVYYCARAGSDYFNRDLGWENYYFASWGQGTLVTVSS VL: EIVMTQSPATLSLSSGERATLSCRASRSVSSNLAWYQQKPGQAPRLLIYDASTRATGFSARFAGSGSGTEFTLTISSLQSEDSAIYYCQQYNNWPPWTFGQGTKVEIK | binds | 
v12.7 (antibody, V domains shown) VH: QVHLVQSGAEVKEPGSSVTVSCKASGGSFNNQAISWVRQAPGQGLEWMGGIFPISGTANYAQRFQGRVTITADESTTTVYMDLSSLRSDDTAVYYCARAGSDYFNRDLGWENYYFASWGQGTLVTVSS VL: EIVMTQSPATLSLSSGERATLSCRASRSVSSNLAWYQQKPGQAPRLLIYDASTRATGFSARFAGSGSGTEFTLTISSLQSEDSAIYYCQQYNIWPPWTFGQGTKVEIK | binds | 
v5.1 (antibody, V domains shown) VH: QVHLVQSGAEVKEPGSSVTVSCKASGGSFNKQAISWVRQAPGQGLEWMGGIFPISGTPTSAQRFQGRVTFTADESTTTVYMDLSSLRSDDTAVYYCARAGSDYFNRDLGWENYYFASWGQGTLVTVSS VL: EIVMTQSPATLSLSSGERATLSCRASRSVSSNLAWYQQKPGQAPRLLIYDASTRATGFSARFAGSGSGTEFTLTISSLQSEDSAIYYCQQYNNWPPWTFGQGTKVEIK | binds | 
v9.7 (antibody, V domains shown) VH: QVHLVQSGAEVKEPGSSVTVSCKASGGSFNNQAISWVRQAPGQGLEWMGGIFPISGTATSAQRFQGRVTITADESTTTVYMDLSSLRSDDTAVYYCARAGSDYFNRDLGWENYYFASWGQGTLVTVSS VL: EIVMTQSPATLSLSSGERATLSCRASRSVSSNLAWYQQKPGQAPRLLIYDASTRATGFSARFAGSGSGTEFTLTISSLQSEDSAIYYCQQYNIWPPWTFGQGTKVEIK | binds | 
v6.7 (antibody, V domains shown) VH: QVHLVQSGAEVKEPGSSVTVSCKASGGSFNNQAISWVRQAPGQGLEWMGGIFPISGTPTSAQRFQGRVTFTADESTTTVYMDLSSLRSDDTAVYYCARAGSEYFNRDLGWENYYFASWGQGTLVTVSS VL: EIVMTQSPATLSLSSGERATLSCRASRSVSSNLAWYQQKPGQAPRLLIYDASTRATGFSARFAGSGSGTEFTLTISSLQSEDSAIYYCQQYNIWPPWTFGQGTKVEIK | binds | 
v4.7 (antibody, V domains shown) VH: QVHLVQSGAEVKEPGSSVTVSCKASGGSFSNQAISWVRQAPGQGLEWMGGIFPISGTPTSAQRFQGRVTFTADESTTTVYMDLSSLRSDDTAVYYCARAGSDYFNRDLGWENYYFASWGQGTLVTVSS VL: EIVMTQSPATLSLSSGERATLSCRASRSVSSNLAWYQQKPGQAPRLLIYDASTRATGFSARFAGSGSGTEFTLTISSLQSEDSAIYYCQQYNIWPPWTFGQGTKVEIK | binds | 
v11.1 (antibody, V domains shown) VH: QVHLVQSGAEVKEPGSSVTVSCKASGGSFNNQAISWVRQAPGQGLEWMGGIFPISGTATYAQRFQGRVTITADESTTTVYMDLSSLRSDDTAVYYCARAGSDYFNRDLGWENYYFASWGQGTLVTVSS VL: EIVMTQSPATLSLSSGERATLSCRASRSVSSNLAWYQQKPGQAPRLLIYDASTRATGFSARFAGSGSGTEFTLTISSLQSEDSAIYYCQQYNNWPPWTFGQGTKVEIK | binds | 
v7.7 (antibody, V domains shown) VH: QVHLVQSGAEVKEPGSSVTVSCKASGGSFNNQAISWVRQAPGQGLEWMGGIFPISGTPTSAQRFQGRVTFTADESTTTVYMDLSSLRSDDTAVYYCARAGSDYFNRDLGWEQYYFASWGQGTLVTVSS VL: EIVMTQSPATLSLSSGERATLSCRASRSVSSNLAWYQQKPGQAPRLLIYDASTRATGFSARFAGSGSGTEFTLTISSLQSEDSAIYYCQQYNIWPPWTFGQGTKVEIK | binds | 
v11.7 (antibody, V domains shown) VH: QVHLVQSGAEVKEPGSSVTVSCKASGGSFNNQAISWVRQAPGQGLEWMGGIFPISGTATYAQRFQGRVTITADESTTTVYMDLSSLRSDDTAVYYCARAGSDYFNRDLGWENYYFASWGQGTLVTVSS VL: EIVMTQSPATLSLSSGERATLSCRASRSVSSNLAWYQQKPGQAPRLLIYDASTRATGFSARFAGSGSGTEFTLTISSLQSEDSAIYYCQQYNIWPPWTFGQGTKVEIK | binds | 
v12.1 (antibody, V domains shown) VH: QVHLVQSGAEVKEPGSSVTVSCKASGGSFNNQAISWVRQAPGQGLEWMGGIFPISGTANYAQRFQGRVTITADESTTTVYMDLSSLRSDDTAVYYCARAGSDYFNRDLGWENYYFASWGQGTLVTVSS VL: EIVMTQSPATLSLSSGERATLSCRASRSVSSNLAWYQQKPGQAPRLLIYDASTRATGFSARFAGSGSGTEFTLTISSLQSEDSAIYYCQQYNNWPPWTFGQGTKVEIK | binds | 
v8.7 (antibody, V domains shown) VH: QVHLVQSGAEVKEPGSSVTVSCKASGGTFNNQAISWVRQAPGQGLEWMGGIFPISGTPTSAQRFQGRVTFTADESTTTVYMDLSSLRSDDTAVYYCARAGSDYFNRDLGWENYYFASWGQGTLVTVSS VL: EIVMTQSPATLSLSSGERATLSCRASRSVSSNLAWYQQKPGQAPRLLIYDASTRATGFSARFAGSGSGTEFTLTISSLQSEDSAIYYCQQYNIWPPWTFGQGTKVEIK | binds | 
FNI9-v8.1 (antibody, V domains shown) VH: QVHLVQSGAEVKEPGSSVTVSCKASGGTFNNQAISWVRQAPGQGLEWMGGIFPISGTPTSAQRFQGRVTFTADESTTTVYMDLSSLRSDDTAVYYCARAGSDYFNRDLGWENYYFASWGQGTLVTVSS VL: EIVMTQSPATLSLSSGERATLSCRASRSVSSNLAWYQQKPGQAPRLLIYDASTRATGFSARFAGSGSGTEFTLTISSLQSEDSAIYYCQQYNNWPPWTFGQGTKVEIK | binds | 
v7.1 (antibody, V domains shown) VH: QVHLVQSGAEVKEPGSSVTVSCKASGGSFNNQAISWVRQAPGQGLEWMGGIFPISGTPTSAQRFQGRVTFTADESTTTVYMDLSSLRSDDTAVYYCARAGSDYFNRDLGWEQYYFASWGQGTLVTVSS VL: EIVMTQSPATLSLSSGERATLSCRASRSVSSNLAWYQQKPGQAPRLLIYDASTRATGFSARFAGSGSGTEFTLTISSLQSEDSAIYYCQQYNNWPPWTFGQGTKVEIK | binds | 
FNI3 (antibody, V domains shown) VH: QVQLVQSGAEVKRPGSSVKVSCKASGATFSNNVIAWVRQAPGQGLEWMGGIHPISATATYAQKFQGRVAIAADELTSTAYMELNGLRSEDSAVYYCARAGSDYFNRDLGWENYYFDSWGQGTLVTVSS VL: EILMTQSPATLSVSPGERATLSCRASQDVSGNLAWYQQRPGQAPRLLIYGASTRATGVPARFTGAGSGTEFTLTISSLQSEDFALYYCQHYNNWPPWTFGQGTKVEIK |  | EC50 (read off the curve) (N1 [4]): ~0.007 µg/mL; Kd (N1 [5]): < 1 pM; kon (N1 [5]): 39500 M⁻¹ s⁻¹; koff (N1 [6]): < 1e-07 s⁻¹; lowest concentration at which binding was observed (EC50 scale class) [7]: 50 µg/mL; lowest concentration at which binding was observed (EC50 scale class) [8]: 0.4 µg/mL; lowest concentration at which binding was observed (EC50 scale class) [9]: 0.4 µg/mL; lowest concentration at which binding was observed (EC50 scale class) [10]: 10 µg/mL; lowest concentration at which binding was observed (EC50 scale class) [1]: 0.4 µg/mL; lowest concentration at which binding was observed (EC50 scale class) [2]: 0.4 µg/mL
